From paper PMC10862077 (Frontiers in Immunology, 2024) come the findings set out here.

One may read the Kd as the equilibrium constant for the complex coming apart. Read a low Kd as a tighter complex. Usually koff stands for a measure of how fast the partners let go of each other. A lower koff goes with slow dissociation.

Common to all, as to conditions: both partners purified
One test concerns the target sheep albumin (Ovis aries, UniProt P14639). Put plainly: ELISA; […], pH 7.4); room temperature; […]. On the technique in general: ELISA stands for enzyme-linked immunosorbent assay.
A further test has as its target bovine albumin (Bos taurus, UniProt P02769). Put plainly: ELISA; […], pH 7.4); room temperature; […].
Test [1] addresses T1, horse albumin (Equus caballus, UniProt P35747). Put plainly: ELISA; […], pH 7.4); room temperature; […].
In test [2] the target is T2, cat albumin (Felis catus, UniProt P49064). Nature of the test: ELISA; […], pH 7.4); room temperature; […].
T2 sequence (P49064 25-608): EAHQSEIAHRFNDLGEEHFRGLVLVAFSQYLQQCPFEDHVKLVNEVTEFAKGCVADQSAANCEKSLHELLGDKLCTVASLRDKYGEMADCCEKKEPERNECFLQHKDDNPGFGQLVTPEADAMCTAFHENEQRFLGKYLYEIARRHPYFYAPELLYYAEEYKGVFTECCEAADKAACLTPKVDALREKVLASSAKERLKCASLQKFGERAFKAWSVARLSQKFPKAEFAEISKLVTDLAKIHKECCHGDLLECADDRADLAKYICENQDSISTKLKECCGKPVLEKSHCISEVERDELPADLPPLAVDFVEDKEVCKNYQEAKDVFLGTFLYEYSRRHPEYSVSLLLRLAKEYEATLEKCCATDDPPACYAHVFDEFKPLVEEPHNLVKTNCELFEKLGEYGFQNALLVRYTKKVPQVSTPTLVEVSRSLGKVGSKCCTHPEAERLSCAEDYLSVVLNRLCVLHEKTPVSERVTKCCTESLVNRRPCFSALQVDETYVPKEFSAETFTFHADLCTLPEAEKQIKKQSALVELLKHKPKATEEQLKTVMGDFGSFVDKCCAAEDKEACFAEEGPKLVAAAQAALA
The target in another test is mouse albumin (Mus musculus, UniProt P07724). Nature of the test: ELISA; […], pH 7.4); room temperature; […].
Sequence of mouse albumin (P07724 25-608): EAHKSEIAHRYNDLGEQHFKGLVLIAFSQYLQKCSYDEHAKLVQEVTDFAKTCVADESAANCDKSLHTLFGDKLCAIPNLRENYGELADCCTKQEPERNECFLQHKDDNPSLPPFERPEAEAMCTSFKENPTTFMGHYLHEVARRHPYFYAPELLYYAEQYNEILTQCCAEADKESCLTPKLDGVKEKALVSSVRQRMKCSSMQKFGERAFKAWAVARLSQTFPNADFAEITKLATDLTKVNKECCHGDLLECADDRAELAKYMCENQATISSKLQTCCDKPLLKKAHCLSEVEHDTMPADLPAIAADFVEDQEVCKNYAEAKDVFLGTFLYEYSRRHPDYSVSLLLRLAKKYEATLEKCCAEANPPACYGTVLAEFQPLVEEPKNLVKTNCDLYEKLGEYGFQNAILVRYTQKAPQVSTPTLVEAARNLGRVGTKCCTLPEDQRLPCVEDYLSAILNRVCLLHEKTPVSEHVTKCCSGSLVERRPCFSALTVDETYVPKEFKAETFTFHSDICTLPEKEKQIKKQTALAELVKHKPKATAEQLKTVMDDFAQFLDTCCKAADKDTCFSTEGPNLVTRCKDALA
For a further test, the target named is T3, human albumin (Homo sapiens, UniProt P02768).
T3 construct: also called HSA
T3 sequence (P02768 25-609): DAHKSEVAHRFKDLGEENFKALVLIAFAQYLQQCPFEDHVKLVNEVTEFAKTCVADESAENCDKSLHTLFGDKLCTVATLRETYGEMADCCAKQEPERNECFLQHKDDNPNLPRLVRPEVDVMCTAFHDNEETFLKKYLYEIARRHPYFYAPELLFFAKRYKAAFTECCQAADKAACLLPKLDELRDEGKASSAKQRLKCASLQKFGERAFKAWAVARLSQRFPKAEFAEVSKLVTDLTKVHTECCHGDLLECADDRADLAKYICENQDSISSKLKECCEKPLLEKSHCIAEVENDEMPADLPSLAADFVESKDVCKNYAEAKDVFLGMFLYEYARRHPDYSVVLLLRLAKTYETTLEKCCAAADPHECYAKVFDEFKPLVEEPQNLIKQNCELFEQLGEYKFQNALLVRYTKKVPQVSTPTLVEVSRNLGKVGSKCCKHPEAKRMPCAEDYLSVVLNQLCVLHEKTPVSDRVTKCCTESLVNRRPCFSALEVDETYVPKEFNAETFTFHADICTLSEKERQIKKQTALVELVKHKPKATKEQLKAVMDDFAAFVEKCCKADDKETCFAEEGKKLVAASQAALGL
Put plainly: ELISA; […], pH 7.4); room temperature; […].

The target of test [3] is T4, natural protein of Sus scrofa P08835 (Sus scrofa, UniProt P08835).
T4 construct: also called Sw
T4 sequence (P08835 25-607, one chain of several): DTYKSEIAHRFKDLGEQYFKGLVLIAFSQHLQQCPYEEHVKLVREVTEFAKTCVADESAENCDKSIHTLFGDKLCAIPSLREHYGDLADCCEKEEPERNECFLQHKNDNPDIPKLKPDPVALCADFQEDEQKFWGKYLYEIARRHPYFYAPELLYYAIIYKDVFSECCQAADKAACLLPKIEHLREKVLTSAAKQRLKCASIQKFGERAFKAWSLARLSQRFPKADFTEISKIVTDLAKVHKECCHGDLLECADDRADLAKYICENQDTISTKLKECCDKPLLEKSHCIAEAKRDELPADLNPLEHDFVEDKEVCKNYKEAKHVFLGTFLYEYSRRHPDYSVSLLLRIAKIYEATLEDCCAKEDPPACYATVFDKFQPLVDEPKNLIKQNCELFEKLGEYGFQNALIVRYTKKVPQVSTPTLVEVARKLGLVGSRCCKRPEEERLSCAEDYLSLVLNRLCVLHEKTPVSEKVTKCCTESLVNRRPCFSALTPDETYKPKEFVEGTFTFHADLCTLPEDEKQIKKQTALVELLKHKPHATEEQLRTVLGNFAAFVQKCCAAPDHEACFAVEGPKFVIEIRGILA
Put plainly: ELISA; […], pH 7.4); room temperature; […].

The target of a further test is chicken ovalbumin (Gallus gallus, UniProt P01012). Nature of the test: ELISA; […], pH 7.4); room temperature; […].
Sequence of chicken ovalbumin (P01012 whole entry): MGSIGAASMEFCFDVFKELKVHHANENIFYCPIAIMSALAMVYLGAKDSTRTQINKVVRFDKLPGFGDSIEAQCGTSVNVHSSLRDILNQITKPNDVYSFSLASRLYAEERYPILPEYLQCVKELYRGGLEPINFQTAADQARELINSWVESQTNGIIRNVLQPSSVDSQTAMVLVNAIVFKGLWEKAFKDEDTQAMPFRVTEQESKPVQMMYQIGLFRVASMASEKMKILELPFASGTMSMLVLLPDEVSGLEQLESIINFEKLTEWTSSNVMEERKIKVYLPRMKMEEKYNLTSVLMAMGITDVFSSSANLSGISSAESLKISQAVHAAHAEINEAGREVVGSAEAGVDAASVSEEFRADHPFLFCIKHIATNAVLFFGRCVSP
The target in test [4] is T1, horse albumin.
Test [5] concerns the target T2, cat albumin.
The target of test [6] is T4, natural protein of Sus scrofa P08835.

T1 sequence (P35747 25-607): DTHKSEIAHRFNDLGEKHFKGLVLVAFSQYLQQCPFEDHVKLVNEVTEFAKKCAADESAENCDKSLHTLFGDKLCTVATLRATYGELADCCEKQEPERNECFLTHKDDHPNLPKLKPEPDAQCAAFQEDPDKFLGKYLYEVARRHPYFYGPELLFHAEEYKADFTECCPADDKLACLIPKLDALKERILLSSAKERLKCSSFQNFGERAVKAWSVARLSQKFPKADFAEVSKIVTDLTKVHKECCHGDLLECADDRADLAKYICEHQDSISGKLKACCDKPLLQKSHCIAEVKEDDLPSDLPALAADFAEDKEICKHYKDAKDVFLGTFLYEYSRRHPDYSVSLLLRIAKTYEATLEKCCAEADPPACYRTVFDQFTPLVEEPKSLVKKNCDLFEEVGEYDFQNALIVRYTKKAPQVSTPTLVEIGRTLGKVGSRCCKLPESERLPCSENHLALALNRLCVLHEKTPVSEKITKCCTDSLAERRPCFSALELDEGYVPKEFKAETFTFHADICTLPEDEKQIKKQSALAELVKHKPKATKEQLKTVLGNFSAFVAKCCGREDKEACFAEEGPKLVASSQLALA
Sequence of sheep albumin (P14639 25-607): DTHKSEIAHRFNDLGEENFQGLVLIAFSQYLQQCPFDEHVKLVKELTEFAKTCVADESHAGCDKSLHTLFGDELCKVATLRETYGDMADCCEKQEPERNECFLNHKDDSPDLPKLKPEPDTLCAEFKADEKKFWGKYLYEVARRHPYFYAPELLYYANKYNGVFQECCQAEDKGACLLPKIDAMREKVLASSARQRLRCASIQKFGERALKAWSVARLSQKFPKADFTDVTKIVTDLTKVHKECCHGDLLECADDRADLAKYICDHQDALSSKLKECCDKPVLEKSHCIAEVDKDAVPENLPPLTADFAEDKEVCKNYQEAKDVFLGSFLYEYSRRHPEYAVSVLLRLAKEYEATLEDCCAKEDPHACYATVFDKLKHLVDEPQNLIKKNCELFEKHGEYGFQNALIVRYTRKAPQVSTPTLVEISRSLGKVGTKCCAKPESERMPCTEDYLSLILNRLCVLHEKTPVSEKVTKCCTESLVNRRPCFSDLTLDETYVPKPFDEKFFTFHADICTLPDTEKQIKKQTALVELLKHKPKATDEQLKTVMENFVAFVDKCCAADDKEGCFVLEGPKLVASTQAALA
Sequence of bovine albumin (P02769 25-607): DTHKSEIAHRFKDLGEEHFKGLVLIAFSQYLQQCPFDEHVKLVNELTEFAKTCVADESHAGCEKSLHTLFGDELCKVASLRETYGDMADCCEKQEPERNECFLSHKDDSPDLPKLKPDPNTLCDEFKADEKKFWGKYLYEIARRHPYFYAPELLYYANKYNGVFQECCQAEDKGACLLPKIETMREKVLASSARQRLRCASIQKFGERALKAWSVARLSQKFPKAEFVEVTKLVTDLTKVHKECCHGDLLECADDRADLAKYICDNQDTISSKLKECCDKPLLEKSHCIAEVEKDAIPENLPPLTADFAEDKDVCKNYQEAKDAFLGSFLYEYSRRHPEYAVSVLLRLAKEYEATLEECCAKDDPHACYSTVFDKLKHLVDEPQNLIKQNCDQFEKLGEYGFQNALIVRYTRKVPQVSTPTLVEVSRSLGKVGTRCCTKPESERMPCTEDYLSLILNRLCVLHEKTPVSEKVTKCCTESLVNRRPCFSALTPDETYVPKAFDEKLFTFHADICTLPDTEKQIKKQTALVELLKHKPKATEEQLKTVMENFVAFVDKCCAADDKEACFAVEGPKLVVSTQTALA

B1: A7L (VHH)
VHH: QVQLQQSGGGLVQAGDSLRLSCAASGRAFNYYTMGWFRQAPGKEREFVAKIYWDGGSTIYADSVKGRFTISIDNAKNTVYLQMNSLKPEDTAVYYCAADPSFYPFRPKYWGQGTQVTVSS
notes: also called sdAb A7
Regarding B1, the binding result was “no binding (tested: 1 µg/ml sdAb)” in the test with sheep albumin; “no binding (tested: 1 µg/ml sdAb)” in the test with bovine albumin; “binds” in the test with horse albumin [1]; “no binding (tested: 1 µg/ml sdAb)” with cat albumin [2]; “no binding (tested: 1 µg/ml sdAb)” in the test with mouse albumin; “no binding (tested: 1 µg/ml sdAb)” with human albumin. For the same molecule, the binding result (in [3]; with chicken ovalbumin) was “no binding (tested: 1 µg/ml sdAb)” each time.

B2: A2L (VHH)
VHH: QVQLQQSGGGLVQAGGSLRLSCAASGRFFSRQVMGWFRQAPGKDREFVGVISWDNGVTFYSDSVKGRFTMSREIAKKTVHLQMNSLKPEDTAVYYCAAGNALHSRYYSPSKYDYWGPGTQVTVSS
notes: also called sdAb A2
Consider B2, for which the binding result with horse albumin [1] was “binds”.

B3: A6L (VHH)
VHH: QVQLQESGGRLVQAEDSLRLSCAASGRTFVSYDMGWFRQAPGKEREFVAAINWRGYTTDYVDSVKGRFFISRDIAKSTVYLQMNNLKPEDTAVYYCAARQMSGSSRYSPPGRVGYDFWGQGTQVTVSS
notes: also called sdAb A6
Turning to B3, the dissociation constant (Kd) with horse albumin [4] stood at 13 nM; in the test with cat albumin [5] it was 1.2 nM. For the same molecule, the dissociation rate constant (koff) with horse albumin [4] turned out to be 0.00966 s⁻¹; with cat albumin [5], 0.00087 s⁻¹.

B4: A12L (VHH)
VHH: QVQLQESGGGLVQAGGSLRLSCAASGRTFSYYPMAWFRQAPGQEREFVAAIIGADTTYYADSLKGRFTISRDNAKNMVYLQMNSLKPEDTAVYYCAARNTYWSDVYYREGQYTNWGQGTQVTVSS
notes: also called sdAb A12
On to B4, for which the Kd with horse albumin [4] turned out to be 13 nM; in the test with cat albumin [5], 31 nM; in test [6], 189 nM. The koff in the test with horse albumin [4] came out at 0.00115 s⁻¹; in the test with cat albumin [5], 0.00082 s⁻¹; in test [6], 0.0249 s⁻¹.

B5: A16L (VHH)
VHH: QVQLQESGGGVVQAGGSLRLSCAASGRTVSSSAMGWFRLAPGKEREFVVGISRSGGSIFYADSVKGRFTISRKNAKNTVDLQMNSLKPEDTAVYYCAAGYRPGYGDYGRVFYREDEYDDWGQGTQVTVSS
notes: also called sdAb A16
Turning to B5, in the test with horse albumin [4], the Kd worked out at 11 nM and the koff was determined as 0.00242 s⁻¹.
